# Test results published in PMC9032424 (PLoS ONE, 2022).
# T1: HisH (glutaminase subunit of Imidazole Glycerol Phosphate Synthase) from Thermotoga maritima (Thermotoga maritima, UniProt Q9X0C8 1-201)
# T1 construct: HisH, Thermotoga maritima; cloned NdeI/XhoI into pET28a; No removal of the His-tag is described; source: bacteria transformed with pET28a, purified (70°C heat step, Ni-NTA agarose)
# T1 sequence: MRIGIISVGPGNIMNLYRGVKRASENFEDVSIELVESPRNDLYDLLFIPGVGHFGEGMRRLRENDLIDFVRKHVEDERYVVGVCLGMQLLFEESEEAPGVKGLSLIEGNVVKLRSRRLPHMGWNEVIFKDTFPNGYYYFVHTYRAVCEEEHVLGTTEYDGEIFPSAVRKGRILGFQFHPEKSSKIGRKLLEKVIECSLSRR
# Target: T1, HisH (glutaminase subunit of Imidazole …)
# Assay: other fluorescence titration; intrinsic tryptophan fluorescence; 15 uM HisH mixed with sub-stoichiometric HisF (1 to 5 uM); 20 mM potassium phosphate pH 7.5; excitation 295 nm, difference spectra read at 321 nm; fluorescence as proxy of concentrations; 30°C
# Conditions: both partners purified
row,fold increase of Kd against wild-type HisF,Binder
1,10 fold,"HisF E167A (enzyme, Thermotoga maritima, HisF, Thermotoga maritima, with the single mutation E167A; parent is the HisF of m1; probably as the His-tagged wild-type HisF; also called mutant HisF) MLAKRIIACLDVKDGRVVKGTNFENLRDSGDPVELGKFYSEIGIDELVFLDITASVEKRKTMLELVEKVAEQIDIPFTVGGGIHDFETASELILRGADKVSINTAAVENPSLITQIAQTFGSQAVVVAIDAKRVDGEFMVFTYSGKKNTGILLRDWVVEVEKRGAGAILLTSIDRDGTKSGYDTEMIRFVRPLTTLPIIASGGAGKMEHFLEAFLAGADAALAASVFHFREIDVRELKEYLKKHGVNVRLEGL"
2,~3 fold,"HisF F210A (enzyme, Thermotoga maritima, HisF, Thermotoga maritima, with the single mutation F210A; parent is the HisF of m1; probably as the His-tagged wild-type HisF; also called mutant HisF) MLAKRIIACLDVKDGRVVKGTNFENLRDSGDPVELGKFYSEIGIDELVFLDITASVEKRKTMLELVEKVAEQIDIPFTVGGGIHDFETASELILRGADKVSINTAAVENPSLITQIAQTFGSQAVVVAIDAKRVDGEFMVFTYSGKKNTGILLRDWVVEVEKRGAGEILLTSIDRDGTKSGYDTEMIRFVRPLTTLPIIASGGAGKMEHALEAFLAGADAALAASVFHFREIDVRELKEYLKKHGVNVRLEGL"
3,~3 fold,"HisF K13A (enzyme, Thermotoga maritima, HisF, Thermotoga maritima, with the single mutation K13A; parent is the HisF of m1; probably as the His-tagged wild-type HisF; also called mutant HisF) MLAKRIIACLDVADGRVVKGTNFENLRDSGDPVELGKFYSEIGIDELVFLDITASVEKRKTMLELVEKVAEQIDIPFTVGGGIHDFETASELILRGADKVSINTAAVENPSLITQIAQTFGSQAVVVAIDAKRVDGEFMVFTYSGKKNTGILLRDWVVEVEKRGAGEILLTSIDRDGTKSGYDTEMIRFVRPLTTLPIIASGGAGKMEHFLEAFLAGADAALAASVFHFREIDVRELKEYLKKHGVNVRLEGL"
4,~3 fold,"HisF L169A (enzyme, Thermotoga maritima, HisF, Thermotoga maritima, with the single mutation L169A; parent is the HisF of m1; probably as the His-tagged wild-type HisF; also called mutant HisF) MLAKRIIACLDVKDGRVVKGTNFENLRDSGDPVELGKFYSEIGIDELVFLDITASVEKRKTMLELVEKVAEQIDIPFTVGGGIHDFETASELILRGADKVSINTAAVENPSLITQIAQTFGSQAVVVAIDAKRVDGEFMVFTYSGKKNTGILLRDWVVEVEKRGAGEIALTSIDRDGTKSGYDTEMIRFVRPLTTLPIIASGGAGKMEHFLEAFLAGADAALAASVFHFREIDVRELKEYLKKHGVNVRLEGL"
